Tests used:
[1] = target: T1, human complement factor C1q (chains A, B and C) (human, UniProt P02745 23-245; P02746 28-253; P02747 29-245); assay: method not stated; affinity stated in the description
T1 construct: In the assays C1q was the native protein in normal human serum or plasma; also called Human C1q

[2] = target: T1, human complement factor C1q (chains A, …); assay: cell-based or functional assay

T1 sequence (P02745 23-245 limits assumed, chain 1 of 3): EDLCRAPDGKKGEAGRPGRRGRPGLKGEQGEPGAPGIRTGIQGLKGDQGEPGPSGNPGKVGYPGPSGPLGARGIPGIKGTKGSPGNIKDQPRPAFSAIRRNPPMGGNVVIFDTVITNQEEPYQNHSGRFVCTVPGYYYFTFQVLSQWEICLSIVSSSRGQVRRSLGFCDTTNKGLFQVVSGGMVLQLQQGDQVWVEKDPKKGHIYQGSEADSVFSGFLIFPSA
T1 sequence (P02746 28-253 limits assumed, chain 2 of 3): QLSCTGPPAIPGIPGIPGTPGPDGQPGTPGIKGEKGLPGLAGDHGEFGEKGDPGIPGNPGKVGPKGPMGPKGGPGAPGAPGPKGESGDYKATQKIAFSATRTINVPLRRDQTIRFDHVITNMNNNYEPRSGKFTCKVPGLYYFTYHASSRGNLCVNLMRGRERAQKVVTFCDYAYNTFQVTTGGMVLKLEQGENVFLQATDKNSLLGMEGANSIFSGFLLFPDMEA
T1 sequence (P02747 29-245 limits assumed, chain 3 of 3): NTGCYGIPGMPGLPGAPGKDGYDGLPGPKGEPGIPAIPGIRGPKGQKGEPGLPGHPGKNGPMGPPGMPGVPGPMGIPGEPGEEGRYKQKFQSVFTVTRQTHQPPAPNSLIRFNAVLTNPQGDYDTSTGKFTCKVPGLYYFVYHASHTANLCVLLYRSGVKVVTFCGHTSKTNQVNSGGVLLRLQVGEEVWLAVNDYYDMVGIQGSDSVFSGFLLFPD

- Kd [1]: 0.01 nM
- IC50 of inhibition of C4 and C3d deposition on human RBCs (flow cytometry) [2]: ~10 nM
B1: FabA, anti-C1q antibody Fab fragment comprising heavy chain Fab fragment of SEQ ID NO: 39 and light chain Fab fragment of SEQ ID NO: 40 (Fab)
heavy: QVQLVQSGAELKKPGASVKVSCKSSGYHFTSYWMHWVKQAPGQGLEWIGVIHPNSGSINYNEKFESRVTITVDKSTSTAYMELSSLRSEDTAVYYCAGERDSTEVLPMDYWGQGTTVTVSSASTKGPSVFPLAPSSKSTSGGTAALGCLVKDYFPEPVTVSWNSGALTSGVHTFPAVLQSSGLYSLSSVVTVPSSSLGTQTYICNVNHKPSNTKVDKKVEPKSCDKTHT
light: DVQITQSPSSLSASLGERATINCRASKSINKYLAWYQQKPGKAPKLLIYSGSTLQSGIPARFSGSGSGTDFTLTISSLEPEDFAMYYCQQHNEYPLTFGQGTKLEIKRTVAAPSVFIFPPSDEQLKSGTASVVCLLNNFYPREAKVQWKVDNALQSGNSQESVTEQDSKDSTYSLSSTLTLSKADYEKHKVYACEVTHQGLSSPVTKSFNRGEC
notes: The heavy chain is truncated after the first heavy chain constant domain of IgG1; also called anti-C1q monovalent Fab; anti-C1q Fab
- IC50 for inhibition of hemolysis of CAD-sensitized human RBCs in normal human serum [2]: ~10 nM
